Experimental findings from PMC2139813 (The Journal of Cell Biology, 1997) are described below.

This assay addresses human placental moesin (human, UniProt P26038 1-577). In words: far-Western, overlay or dot blot.

B1: human moesin N-ERMAD (amino acids 1–296) (domain or fragment, UniProt P26038 1-296, looked up)
chain: MPKTISVRVTTMDAELEFAIQPNTTGKQLFDQVVKTIGLREVWFFGLQYQDTKGFSTWLKLNKKVTAQDVRKESPLLFKFRAKFYPEDVSEELIQDITQRLFFLQVKEGILNDDIYCPPETAVLLASYAVQSKYGDFNKEVHKSGYLAGDKLLPQRVLEQHKLNKDQWEERIQVWHEEHRGMLREDAVLEYLKIAQDLEMYGVNYFSIKNKKGSELWLGVDALGLNIYEQNDRLTPKIGFPWSEIRNISFNDKKFVIKPIDKKAPDFVFYAPRLRINKRILALCMGNHELYMRRRK
modifications: biotin (only where used as probe in blot overlays; site not stated)
In the case of B1, the binding result is listed as “binds”.
